# Measurements from publication PMC4231748, “Human PrimPol mutation associated with high myopia has a DNA replication defect”.
# T1: PrimPol1-354 (polymerase domain, wild type) (human, UniProt Q96LW4 1-354)
# T1 sequence: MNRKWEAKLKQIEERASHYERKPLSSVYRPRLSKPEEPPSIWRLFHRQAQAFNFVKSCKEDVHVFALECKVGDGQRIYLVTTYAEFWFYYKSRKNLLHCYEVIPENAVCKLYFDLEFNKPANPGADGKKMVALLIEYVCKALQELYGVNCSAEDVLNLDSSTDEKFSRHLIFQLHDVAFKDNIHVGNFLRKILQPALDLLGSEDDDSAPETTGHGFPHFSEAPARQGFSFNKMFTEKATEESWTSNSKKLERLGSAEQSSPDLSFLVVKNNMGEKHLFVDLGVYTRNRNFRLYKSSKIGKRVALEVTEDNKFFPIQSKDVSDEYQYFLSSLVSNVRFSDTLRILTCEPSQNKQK
# Target: T1, PrimPol1-354 (polymerase domain, wild …)
# Experiment: EMSA; 10 mM Mg2+; text gives 0.67 uM, Figure 5 legend 0.69 uM; EMSA: 60 nM DNA, 10 mM Bis-Tris-Propane-HCl pH 7.0, 10 mM MgCl2, 1 mM DTT, 25 C, 60 min; 5% polyacrylamide gel in 0.5x TBE
# Details: protein: recombinant; label: 5'-Hex on strand 1 (HP-20); 20 bp duplex, 5' overhang 30 nt on template strand (S12), other end blunt
binder,measurement,value
Overhanging DNA substrate (HP-20 primer / ND-50 TemplateTT) (dsDNA) DNA 1: TGTCGTCTGTTCGGTCGTTC DNA 2: CGCGCAGGGCGCACAACAGCCTTGAAGACCGAACGACCGAACAGACGACA,Kd,690 nM
